Reference: US20230381328A1, “COMPOUND FOR THE PREVENTION OR TREATMENT OF MYASTHENIA GRAVIS” (ABLEVIA BIOTECH GMBH, priority 2020, published 2023)
Where no end group is shown, it is not given here.

Molecular target: monoclonal antibody mAB 198
Assay: peptide microarray, fluorescence, cyclic peptide

Binder | relative signal [%]
RLRPNPADY (also: cyclic peptide, ring type and places not given here) | 9.8%
RLLWNPADY (also: cyclic peptide, ring type and places not given here) | 9.7%
RLRWNPADYGS (also: cyclic peptide, ring type and places not given here) | 9.7%
GSLRWNPADYQ (also: cyclic peptide, mode of cyclisation not given here) | 9.7%
VRLRLNPADYG (also: cyclic peptide, mode of cyclisation not given here) | 9.7%
SLYWNPADY (also: cyclic peptide, mode of cyclisation not given here) | 9.4%
LRGNPAD (also: cyclic peptide, mode of cyclisation not given here) [LRGNPAD, cyclic mimotope] | 9.1%
RWNPADF (also: cyclic peptide, ring type and places not given here) [RWNPADF, cyclic mimotope] | 9.1%
RLRGNPADYGG (also: cyclic peptide, ring type and places not given here) | 9%
WNPDDYR (also: cyclic peptide, mode of cyclisation not given here) [WNPDDYR, cyclic mimotope] | 9%
LRWNPADYPGI (also: cyclic peptide, mode of cyclisation not given here) | 8.9%
DVRLRQNPADY (not fully specified; cyclic peptide) [DVRLRONPADY, cyclic mimotope] | 8.8%
SLRWNPADYHG (also: cyclic peptide, mode of cyclisation not given here) | 8.7%
GSLRWNPADYT (also: cyclic peptide, mode of cyclisation not given here) | 8.7%
NPADYGN (also: cyclic peptide, mode of cyclisation not given here) [NPADYGN, cyclic mimotope] | 8.7%
LRFNPAD (also: cyclic peptide, mode of cyclisation not given here) [LRFNPAD, cyclic mimotope] | 8.6%
RLRTNPADY (also: cyclic peptide, ring type and places not given here) | 8.6%
GGSLRLNPADY (also: cyclic peptide, mode of cyclisation not given here) | 8.5%
